In US20260265403A1:
pKd: −log10 of the molar value. Blank lines part the entries; values can stand above or below the substance they belong to.

Columns and labels:
[1] = target: human CD24 on cells (human) (UniProt P25063); test: flow cytometry (GMFI), MCF-7 cells
[2] = target: human CD24 on cells (human) (UniProt P25063); test: flow cytometry (GMFI), OVCAR3 cells
Human CD24 (human) = Human CD24 (human) (UniProt P25063); test: Biacore (SPR); antibody as ligand, human CD24 as analyte
CD24-his protein (human) [3] = target: CD24-his protein (human) (UniProt P25063); test: ELISA, CD24-his(HEK 293) [Cont'd) B]
Sequence of CD24-his protein (human) (P25063 27-59 limits assumed): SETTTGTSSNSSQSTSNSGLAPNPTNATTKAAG

[4] = target: human CD24 on cells (human) (UniProt P25063); test: flow cytometry (GMFI), A549 cells
[5] = target: human CD24 on cells (human) (UniProt P25063); test: flow cytometry (GMFI), MCF-7 cells; EC50 table under the graphs
[6] = target: human CD24 on cells (human) (UniProt P25063); test: flow cytometry (GMFI), NALM6 cells
[7] = target: human CD24 on cells (human) (UniProt P25063); test: flow cytometry (GMFI), SKOV3 cells; EC50 table under the graphs [Cont'd) B]
[8] = target: human CD24 on cells (human) (UniProt P25063); test: flow cytometry (GMFI), MCF-7 cells [Cont'd) C]
CD24-his protein (human) [9] = target: CD24-his protein (human) (UniProt P25063); test: ELISA, CD24-his (HEK 293), unit taken from the concentration axis
[10] = target: human CD24 on cells (human) (UniProt P25063); test: flow cytometry (MFI), MCF-7 cells [Cont'd) B]
[11] = target: human CD24 on cells (human) (UniProt P25063)
[12] = target: human CD24 on cells (human) (UniProt P25063); test: flow cytometry (MFI), NALM6 cells [Cont'd) B]
CD24-his-GST(Ecoli) = test: ELISA, CD24-his-GST(Ecoli) [Cont'd) B]
Sequence of CD24-his-GST(Ecoli) (chain, as listed by the source limits assumed): as the sequence (P25063 27-59 limits assumed) above

CD24-his protein (human) [13] = target: CD24-his protein (human) (UniProt P25063); test: Siglec10-PE competition assay (gMFI on the sheet); legend: Siglec-10-his-Biotin mixed with the antibody, plate coated with CD24 protein
[14] = target: human CD24 on cells (human) (UniProt P25063); test: flow cytometry (GMFI), MC38-hCD24 cells [Cont'd) C]
[15] = target: human CD24 on cells (human) (UniProt P25063); test: cell-based or functional assay

Sequence of Human CD24 (human) (P25063 27-59 limits assumed): as above
Sequence of human CD24 on cells (human) (P25063 27-59): as the sequence (P25063 27-59 limits assumed) above

Substance: IMM47H (antibody)
EC50 (read off the curve) [1]: 0.5 µg/mL
EC50 (read off the curve) [2]: 0.4 µg/mL
pKd (Human CD24 (human)): 6.78
EC50 (read off the curve) (CD24-his protein (human) [3]): 0.03 µg/mL
EC50 (read off the curve) [4]: 0.3 µg/mL
EC50 [5]: 0.53 µg/mL
EC50 (read off the curve) [6]: 0.3 µg/mL
EC50 [7]: 0.38 µg/mL
EC50 (read off the curve) [8]: 0.3 µg/mL
EC50 (CD24-his protein (human) [9]): 0.0277 µg/mL

Substance: GB7011 (antibody)
EC50 (read off the curve) [1]: 0.3 µg/mL
EC50 (read off the curve) (CD24-his-GST(Ecoli)): 0.02 µg/mL
EC50 (read off the curve) [2]: 0.7 µg/mL
pKd (Human CD24 (human)): 7.91
koff (Human CD24 (human)): 0.0104 s⁻¹
kon (Human CD24 (human)): 839000 M⁻¹ s⁻¹
EC50 (read off the curve) (CD24-his protein (human) [3]): 0.02 µg/mL
EC50 (read off the curve) [4]: 0.3 µg/mL
EC50 (read off the curve) [6]: 0.6 µg/mL
IC50 (read off the curve) (CD24-his protein (human) [13]): 2 µg/mL
EC50 (read off the curve) [8]: 0.4 µg/mL
EC50 (CD24-his protein (human) [9]): 0.0202 µg/mL
EC50 (read off the curve) [14]: 0.3 µg/mL

Substance: NS-17(SWA11) (antibody)
EC50 of Phagocytosis assay, IgG1, Kappa; MCF-7 [15]: 0.02 µg/mL
EC50 of Phagocytosis assay, IgG1, Kappa; NALM6 [15]: 1.01 µg/mL
EC50 of Phagocytosis assay, IgG1, Kappa; OVCAR3 [15]: 0.91 µg/mL
EC50 of Phagocytosis assay, IgG4, Kappa; MCF-7 [15]: 0.09 µg/mL
EC50 of Phagocytosis assay, IgG4, Kappa; NALM6 [15]: 0.18 µg/mL

The remaining lines, values ahead:

EC50 (read off the curve) [10]: 0.1 µg/mL
EC50 (read off the curve), phagocytosis of NALM6 cells [11]: 0.3 µg/mL
EC50 (read off the curve), phagocytosis of OVCAR3 cells [11]: 0.7 µg/mL
EC50 (read off the curve) [12]: 0.09 µg/mL
Substance: anti-CD24 ab(SN3) (antibody)

EC50 [5]: 12.9 µg/mL
EC50 [7]: 3.48 µg/mL
Substance: human isotype IgG4 (antibody)
